Data from the RNAGym collection of RNA variant scans (doi:10.1073/pnas.2313332121).

B1: TPR t1 (parent)
chain: GACCAAUCUGCCCUCAGAGCUCGAGAACAUCUUCGGAUGCAGAGGAGGCAGGCUUCGGUGGCGCGAUAGCGCCAACGUCCUCAACCUCCAAUGCAUCCCACCACAUGAUGAUGCCUGAAGAGCCUUGGUUUUUUG

Variants of: B1
Assay: polymerase ribozyme fitness, log enrichment relative to wild type (log ratio); higher = more active; in vitro selection for triplet polymerase activity
Outline: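 One round of in vitro selection, in triplicate, was applied to PCR-built, transcribed mutant libraries of each subunit of a heterodimeric triplet polymerase ribozyme. The steps were annealing with a biotinylated primer, partner subunit and triplets, incubation frozen at −7 °C, gel excision of extended constructs, streptavidin-bead capture and RT-PCR. Fitness is the logarithm, base 2, of genotype enrichment over wild-type enrichment from inverse-variance-weighted replicate averages of Illumina-sequenced inputs and outputs, keeping genotypes with ≥10 input reads and ≥1 read per output.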

| Variant | polymerase ribozyme fitness (log ratio) |
| --- | --- |
| GACCAAUCUGCCCUCAGAGCUCGAGAACAUCUUCGGAUGCAGAGGAGGCAGGCUUCGGUGGCGCGAUAGCGCCAACGUCUUUAACCUCCAAUGCAACCCACCACAUGAUGAUGCCUGAAGAGCCUUGGUUUUUUG | -1.82 |
| GACCAAUCUGCCCUCAGAGCUCGAGAACAUCUUCGGAUGCAGAGGAGGCAGGCUUCGGUGGCGCGAUAGCGCCAACGUCUUCAACCUCCAAUGCAUCCCACCACAUGAUGAUCCCUGAAGAGCCUUGGUUUUUUG | -3.19 |
| GACCAAUCUGCCCUCAGAGCUCGAGAACAUCUUCGGAUGCAGAGGAGGCAGGCUUCGGUGGCGCGAUAGCGCCAACGUCUUCAACCUCCAAUGCAUCCCACCACAUGAUGAUGCCUGCAGAGCCUUGGUUUUUUG | -3.16 |
| GACCAAUCUGCCCUCAGAGCUCGAGAACAUCUUCGGAUGCAGAGGAGGCAGGCUUCGGUGGCGCGAUAGCGCCAACGUCGUCAACCUCCAAUGCAUCCCACCACAUGAUGAUGCCUGAAGAGCGUUGGUUUUUUG | -4.49 |
| GACCAAUCUGCCCUCAGAGCUCGAGAACAUCUUCGGAUGCAGAGGAGGCAGGCUUCGGUGGCGCGAUAGCGCCAACGUCUUCAACCUCCAAUGCAUCCCACCACAUAAUGAUGCCUGAAGAGCCUUGGUUUUUUG | -6.42 |
| GACCAAUCUGCCCUCAGAGCUCGAGAACAUCUUCGGAUGCAGAGGAGGCAGGCUUCGGUGGCGCGAUAGCGCCAACGUCUUCAACCUCCAAUGCAUCCCACCGCAUGAUGAUGCCUGAAGAGCCUUGGUUUUUUG | -5.21 |
| GACCAAUCUGCCCUCAGAGCUCGAGAACAUCUUCGGAUGCAGAGGAGGCAGGCUUCGGUGGCGCGAUAGCGCCAACGUCUUCAACCUUCAAUGCAUCCCACCACAUGAUGAUGCCUGAAGAGCCUUCGUUUUUUG | -1.46 |
| GACCAAUCUGCCCUCAGAGCUCGAGAACAUCUUCGGAUGCAGAGGAGGCAGGCUUCGGUGGCGCGAUAGCGCCAACGUCUUCAACCUCCAAUGCAUCCCACCACAUGAUGAUGUCUGAAGAGCCUUGGUUUUUUG | -2.33 |
| GACCAAUCUGCCCUCAGAGCUCGAGAACAUCUUCGGAUGCAGAGGAGGCAGGCUUCGGUGGCGCGAUAGCGCCAACGUCGUCAACCUCCAAUGCAUCCCCCCACAUGAUGAUGCCUGAAGAGCCUUGGUUAUUUG | -5.8 |
| GACCAAUCUGCCCUCAGAGCUCGAGAACAUCUUCGGAUGCAGAGGAGGCAGGCUUCGGUGGCGCGAUAGCGCCAACGUCUUCAACCUCCAAUGGAUCCCACCACAUGAUGAUGCCUGAAGAGCCUUGGUUUUUUG | -1.73 |
| GACCAAUCUGCCCUCAGAGCUCGAGAACAUCUUCGGAUGCAGAGGAGGCAGGCUUCGGUGGCGCGAUAGCGCCAACGUCUUCAACCUCCAAUGCAUCCCACCACAUGAUGAUGCCUGAAGAGACUUGGCUUUUUG | -1.18 |
| GACCAAUCUGCCCUCAGAGCUCGAGAACAUCUUCGGAUGCAGAGGAGGCAGGCUUCGGUGGCGCGAUAGCGCCAACGUCGUCAACCUCCAAUGCAUCCCACCACAUGAUGAAGCCUGAAGAGCCUUGGUUUUUUG | -5.14 |
| GACCAAUCUGCCCUCAGAGCUCGAGAACAUCUUCGGAUGCAGAGGAGGCAGGCUUCGGUGGCGCGAUAGCGCCAACGUCGUCAACCUCCAAUGCAUCCCACCACAUGAUCAUGCCUGAAGAGCCUUGGUUUUUUG | -6.58 |
| GACCAAUCUGCCCUCAGAGCUCGAGAACAUCUUCGGAUGCAGAGGAGGCAGGCUUCGGUGGCGCGAUAGCGCCAACGUCUUCAACCUUCAAUGCAUCCCACCACAUGAUGAUGCCUGAAGAGCCUUGGUUUUUUG | -0.555 |
| GACCAAUCUGCCCUCAGAGCUCGAGAACAUCUUCGGAUGCAGAGGAGGCAGGCUUCGGUGGCGCGAUAGCGCCAACGUCUUGAACCUCCAAUGCAUCCCAACACAUGAUGAUGCCUGAAGAGCGUAGGUUUUUUG | -1.21 |
| GACCAAUCUGCCCUCAGAGCUCGAGAACAUCUUCGGAUGCAGAGGAGGCAGGCUUCGGUGGCGCGAUAGCGCCAACGUCUUCAACCUCCAAUGCAUCCCACCACAUGAUGAUGCUUGAAGAGCCUUGGUUUUUUG | -2.06 |
| GACCAAUCUGCCCUCAGAGCUCGAGAACAUCUUCGGAUGCAGAGGAGGCAGGCUUCGGUGGCGCGAUAGCGCCAACGUCUUCAACCUCCAAUGCAUCCCACCACAUGAUGAUGCAUGAAAAGCCAUGGUUUUUUG | -1.71 |
| GACCAAUCUGCCCUCAGAGCUCGAGAACAUCUUCGGAUGCAGAGGAGGCAGGCUUCGGUGGCGCGAUAGCGCCAACGUCGUCAACCUCCAAUGCAUCCCACCACAUGAUGAUGCCUCAAGAGCCUUGGUUUUUUG | -6.43 |
| GACCAAUCUGCCCUCAGAGCUCGAGAACAUCUUCGGAUGCAGAGGAGGCAGGCUUCGGUGGCGCGAUAGCGCCAACGUCUUCGACCUCCAAUGCAUCCCACCACAUGAUGAUGCCUGAAGAGCCUUGGUUUUUUG | -1.23 |
| GACCAAUCUGCCCUCAGAGCUCGAGAACAUCUUCGGAUGCAGAGGAGGCAGGCUUCGGUGGCGCGAUAGCGCCAACGUCUUCAACCUCGAAUGCAUCCCACCACAUGAUGAUGCCUGAAGAGCCUUGGUUUUUUG | -1.42 |
| GACCAAUCUGCCCUCAGAGCUCGAGAACAUCUUCGGAUGCAGAGGAGGCAGGCUUCGGUGGCGCGAUAGCGCCAACGUCGUCAACCUCCAAUGCAUCCCACCACAUGAUGAUGCCUGUAGAGCCUUGGUUUUUUG | -5.08 |

| Variant | polymerase ribozyme fitness (log ratio) |
| --- | --- |
| GACCAAUCUGCCCUCAGAGCUCGAGAACAUCUUCGGAUGCAGAGGAGGCAGGCUUCGGUGGCGCGAUAGCGCCAACGUCGUCAACCACCUAUGCAUCCCACCACAUGAUGCUGCCUGAAGAGCCUUGGUUUUUUG | -6.64 |
| GACCAAUCUGCCCUCAGAGCUCGAGAACAUCUUCGGAUGCAGAGGAGGCAGGCUUCGGUGGCGCGAUAGCGCCAACGUCUUCAACCUCCAAUGCAUCUCACCACAUGAUGAUGCAUGAAGAGCGUUGGUUUUUUG | -0.376 |
| GACCAAUCUGCCCUCAGAGCUCGAGAACAUCUUCGGAUGCAGAGGAGGCAGGCUUCGGUGGCGCGAUAGCGCCAACGUCUUCAACCUCCAAUGCAUCGCACCACAUGAUGAUGCCUGAAGAGCCUUGGUUUUUUG | -6.73 |
| GACCAAUCUGCCCUCAGAGCUCGAGAACAUCUUCGGAUGCAGAGGAGGCAGGCUUCGGUGGCGCGAUAGCGCCAACGUCAUCAACCGCCAAUGCAUCCCACCACAUGAUGAUGCCUGAAGAGCCUUGGUUUUUUG | -2.88 |
| GACCAAUCUGCCCUCAGAGCUCGAGAACAUCUUCGGAUGCAGAGGAGGCAGGCUUCGGUGGCGCGAUAGCGCCAACGUCUUCAACCUCCAAUGCAUCCCAUCACAUGAUGAUGCCUGAAGAGCCUUGGUUUUUUG | -0.367 |
| GACCAAUCUGCCCUCAGAGCUCGAGAACAUCUUCGGAUGCAGAGGAGGCAGGCUUCGGUGGCGCGAUAGCGCCAACGUCUUCAACCUCCAAUGCAUCCCAACACAUGAUGAUGCCUGAAGAGCCUUGGUUUUUUG | -1.52 |
| GACCAAUCUGCCCUCAGAGCUCGAGAACAUCUUCGGAUGCAGAGGAGGCAGGCUUCGGUGGCGCGAUAGCGCCAACGUCUUCAACCUCCAAUGCAUCACACCACAUGAUGAUGCCUGAAGAGCCUUGGUUUCUUG | -5.2 |
| GACCAAUCUGCCCUCAGAGCUCGAGAACAUCUUCGGAUGCAGAGGAGGCAGGCUUCGGUGGCGCGAUAGCGCCAACGUCUUCAUCCUCCAAUGCAUCCCACCACAUGAUGAUGCCUGAAGAGCCUUGGUUUUUUC | -0.488 |
| GACCAAUCUGCCCUCAGAGCUCGAGAACAUCUUCGGAUGCAGAGGAGGCAGGCUUCGGUGGCGCGAUAGCGCCAACGUCUUCAACUUCCAAUGCAUCCCACCACAUGAUGAUGGCUGAAGAGCGAUGGUUUUUUG | -3.38 |
| GACCAAUCUGCCCUCAGAGCUCGAGAACAUCUUCGGAUGCAGAGGAGGCAGGCUUCGGUGGCGCGAUAGCGCCAACGUCUUCAACCUGCAAUGCAUCCCACCACAUGAUGAUGCCUGAAGAGCUUUGGUUUUUUG | -1.05 |
| GACCAAUCUGCCCUCAGAGCUCGAGAACAUCUUCGGAUGCAGAGGAGGCAGGCUUCGGUGGCGCGAUAGCGCCAACGUCAUCAACCUCCAAUGCAUCCCACCACAUGAUGAGGCCUGAAGAGCCUUGGUUUUUUG | -4.16 |
| GACCAAUCUGCCCUCAGAGCUCGAGAACAUCUUCGGAUGCAGAGGAGGCAGGCUUCGGUGGCGCGAUAGCGCCAACGUCUUCAACCUCCAAUGCAUCCCACCACCUGAUGAGGCCUGAACAGCCUUGGUUUUUUG | -3.27 |
| GACCAAUCUGCCCUCAGAGCUCGAGAACAUCUUCGGAUGCAGAGGAGGCAGGCUUCGGUGGCGCGAUAGCGCCAACGUCUUCAACCUCCAAUGCAUCCCACCACAUGAUGAUGCCUAAAGAGCCUUGGUUUUUUG | -2.28 |
| GACCAAUCUGCCCUCAGAGCUCGAGAACAUCUUCGGAUGCAGAGGAGGCAGGCUUCGGUGGCGCGAUAGCGCCAACGUCUUCAACCUCCAAUGCAUCCCACCACAUGAUGAUCCCUGAAGAGCCUUGGUUUUUUC | -2.92 |
| GACCAAUCUGCCCUCAGAGCUCGAGAACAUCUUCGGAUGCAGAGGAGGCAGGCUUCGGUGGCGCGAUAGCGCCAACGUCAUCAACCUCCAAUGCAUCCCACCACAUGAUGAUGCCUGAAGAGCCUUGGUUUUUUU | -3.76 |
| GACCAAUCUGCCCUCAGAGCUCGAGAACAUCUUCGGAUGCAGAGGAGGCAGGCUUCGGUGGCGCGAUAGCGCCAACGUCGUCAACCUCCAAUGCAUCCCACCACAAGAUGAUGCCUGAAGAACCUUGGUUUUUUG | -6.86 |
| GACCAAUCUGCCCUCAGAGCUCGAGAACAUCUUCGGAUGCAGAGGAGGCAGGCUUCGGUGGCGCGAUAGCGCCAACGUCACCAACCUCCAAUGCAUCCCACCACAUGAUGAUGCCUGAAGAGCCUUGGUUUUUUG | -4.02 |
| GACCAAUCUGCCCUCAGAGCUCGAGAACAUCUUCGGAUGCAGAGGAGGCAGGCUUCGGUGGCGCGAUAGCGCCAACGUCUUCAACCUCCAAUGCAUCCCACCACAUGAUGAUGCCUGAAGAGCCUUCGUUUUUUG | -3.21 |
| GACCAAUCUGCCCUCAGAGCUCGAGAACAUCUUCGGAUGCAGAGGAGGCAGGCUUCGGUGGCGCGAUAGCGCCAACGUCAUCAACCUCCAAUGCAUCCCACCACAAGAUGAUGCCUGAAGAGCCUUGGUUUUUUG | -3.28 |
| GACCAAUCUGCCCUCAGAGCUCGAGAACAUCUUCGGAUGCAGAGGAGGCAGGCUUCGGUGGCGCGAUAGCGCCAACGUCUUCAACCUCAAAUGCAUCCCACCACAUGAUGAUGCCUGAUGAGCCUUGGUUUUUUG | -2.89 |
| GACCAAUCUGCCCUCAGAGCUCGAGAACAUCUUCGGAUGCAGAGGAGGCAGGCUUCGGUGGCGCGAUAGCGCCAACGUCUUCAACCUCCAAUGCAUCCCACCACAUGAUGAUGCCUGAGGAGCCUUGGUUUUUUG | 0.683 |
